From publication PMC9907207 (2023)

B1: GAR03, human IgG1 monoclonal antibody (antibody, V domains shown)
VH: QVQLVQSGAEVKKPGASVKVSCKASGYTFSSYDINWVRQAPGQGLEWMGWMSPNSGNTGYAQKFQGRVTMTRSTSMSTAYMELSSLRSEDTAVYFCARMSSSLTNYLDYWGQGTLVTVSS
VL: SYVLTQPPSVAVAPGQTARIRCGENDIGSKNVHWYQQKSGQAPVLVVYDDSDRPSGIPERFSGSNSGNTATLTISRVEAGDEADYYCQVWDSTGDHPDVVFGGGTKLTVL
modifications: biotin (EZ-Link NHS-PEG4-Biotin, 10:1) where loaded on the sensor
B2: GAR12, human IgG1 monoclonal antibody (antibody, V domains shown)
VH: EVQLVQSGGGLVQPGGSLRLSCAASGFTFSSYAMSWVRQAPGKGLEWVLSISGSGGSTYYADSVKGRFTISIDNSKKTVYLQMNSLRAEDTAVYYCAKSGEQQLVQAEYFHHWGQGTLVTVSS
VL: DIQMTQSPSTLSASVGDRVTITCRASQSIGRWLAWYQQKPGKAPKLLIYDASSLESGVPSRFSGSGFGTEFTLTISSLQPDDFATYYCQQCDSLLTFGGGTKLEIK
modifications: biotin (EZ-Link NHS-PEG4-Biotin, 10:1) where loaded on the sensor

Target: SARS-CoV-2 RBD (residues 319-541), ancestral strain (SARS-CoV-2, UniProt P0DTC2 319-541)
Experiment: BLI

Binder	Kd [nM]
B1	0.31
B2	0.2
